Test results as given in publication PMC9427789.

molecular target: Burosumab (wild type); experiment: indirect ELISA; conditions: chain shown with the change; level of the fitted curve at the highest mAb concentration, log [µg/mL] = 0.5; parent: est. 0.57; read off a plot

Row | Binder | response
1 | mouse FGF23 (wild type), Q9EPC2 Q117H; A159S (protein) YPDTSPLLGSNWGSLTHLYTATARTSYHLQIHRDGHVDGTPHQTIYSALMITSEDAGSVVITGAMTRRFLCMDLHGNIFGSLHFSPENCKFRHWTLENGYDVYLSQKHHYLVSLGRAKRIFQPGTNPPPFSQFLSRRNEVPLLHFYTVRPRRHTRSAEDPPERDPLNVLKPRPRATPVPVSCSRELPSAEEGGPAASDPLGVLRRGRGDARGGAGGADRCRPFPRFV | 0.8 A450
2 | mouse FGF23 (wild type), Q9EPC2 T49N; T76R; Q117H; A159S (protein) YPDTSPLLGSNWGSLTHLYTATARNSYHLQIHRDGHVDGTPHQTIYSALMIRSEDAGSVVITGAMTRRFLCMDLHGNIFGSLHFSPENCKFRHWTLENGYDVYLSQKHHYLVSLGRAKRIFQPGTNPPPFSQFLSRRNEVPLLHFYTVRPRRHTRSAEDPPERDPLNVLKPRPRATPVPVSCSRELPSAEEGGPAASDPLGVLRRGRGDARGGAGGADRCRPFPRFV | 0.9 A450
3 | mouse FGF23 (wild type), Q9EPC2 T49N; Q117H; A159S (protein) YPDTSPLLGSNWGSLTHLYTATARNSYHLQIHRDGHVDGTPHQTIYSALMITSEDAGSVVITGAMTRRFLCMDLHGNIFGSLHFSPENCKFRHWTLENGYDVYLSQKHHYLVSLGRAKRIFQPGTNPPPFSQFLSRRNEVPLLHFYTVRPRRHTRSAEDPPERDPLNVLKPRPRATPVPVSCSRELPSAEEGGPAASDPLGVLRRGRGDARGGAGGADRCRPFPRFV | 0.98 A450
4 | mouse FGF23 (wild type), Q9EPC2 T76R (protein) YPDTSPLLGSNWGSLTHLYTATARTSYHLQIHRDGHVDGTPHQTIYSALMIRSEDAGSVVITGAMTRRFLCMDLHGNIFGSLHFSPENCKFRQWTLENGYDVYLSQKHHYLVSLGRAKRIFQPGTNPPPFSQFLARRNEVPLLHFYTVRPRRHTR | 0.78 A450
5 | mouse FGF23 (wild type), Q9EPC2 A159S (protein) YPDTSPLLGSNWGSLTHLYTATARTSYHLQIHRDGHVDGTPHQTIYSALMITSEDAGSVVITGAMTRRFLCMDLHGNIFGSLHFSPENCKFRQWTLENGYDVYLSQKHHYLVSLGRAKRIFQPGTNPPPFSQFLSRRNEVPLLHFYTVRPRRHTR | 0.4 A450
6 | mouse FGF23 (wild type), Q9EPC2 T49N (protein) YPDTSPLLGSNWGSLTHLYTATARNSYHLQIHRDGHVDGTPHQTIYSALMITSEDAGSVVITGAMTRRFLCMDLHGNIFGSLHFSPENCKFRQWTLENGYDVYLSQKHHYLVSLGRAKRIFQPGTNPPPFSQFLARRNEVPLLHFYTVRPRRHTR | 0.59 A450
7 | mouse FGF23 (wild type), Q9EPC2 Q117H (protein) YPDTSPLLGSNWGSLTHLYTATARTSYHLQIHRDGHVDGTPHQTIYSALMITSEDAGSVVITGAMTRRFLCMDLHGNIFGSLHFSPENCKFRHWTLENGYDVYLSQKHHYLVSLGRAKRIFQPGTNPPPFSQFLARRNEVPLLHFYTVRPRRHTR | 0.78 A450

same assay, conditions: chain shown with the change;; read off a plot

Row | Binder | ratio to parent
8 | His-SUMO-FGF23 (N-terminal domain of human FGF23, wild type), Q9GZV9 R48A (protein) YPNASPLLGSSWGGLIHLYTATAANSYHLQIHKNGHVDGAPHQTIYSALMIRSEDAGFVVITGVMSRRYLCMDFRGNIFGSHYFDPENCRFQHQTLENGYDVYHSPQYHFLVSLGRAKRAFLPGMNPPPYSQFLSRRNEIPLIHFNTPIPRRHTRSAEDDSERDPLNVLKPRARMTPAPA | 1
9 | His-SUMO-FGF23 (N-terminal domain of human FGF23, wild type), Q9GZV9 F82A (protein) YPNASPLLGSSWGGLIHLYTATARNSYHLQIHKNGHVDGAPHQTIYSALMIRSEDAGAVVITGVMSRRYLCMDFRGNIFGSHYFDPENCRFQHQTLENGYDVYHSPQYHFLVSLGRAKRAFLPGMNPPPYSQFLSRRNEIPLIHFNTPIPRRHTRSAEDDSERDPLNVLKPRARMTPAPA | 1.1
10 | His-SUMO-FGF23 (N-terminal domain of human FGF23, wild type), Q9GZV9 H133A (protein) YPNASPLLGSSWGGLIHLYTATARNSYHLQIHKNGHVDGAPHQTIYSALMIRSEDAGFVVITGVMSRRYLCMDFRGNIFGSHYFDPENCRFQHQTLENGYDVYHSPQYAFLVSLGRAKRAFLPGMNPPPYSQFLSRRNEIPLIHFNTPIPRRHTRSAEDDSERDPLNVLKPRARMTPAPA | 2.2
11 | His-SUMO-FGF23 (N-terminal domain of human FGF23, wild type), Q9GZV9 H52A (protein) YPNASPLLGSSWGGLIHLYTATARNSYALQIHKNGHVDGAPHQTIYSALMIRSEDAGFVVITGVMSRRYLCMDFRGNIFGSHYFDPENCRFQHQTLENGYDVYHSPQYHFLVSLGRAKRAFLPGMNPPPYSQFLSRRNEIPLIHFNTPIPRRHTRSAEDDSERDPLNVLKPRARMTPAPA | 9
12 | His-SUMO-FGF23 (N-terminal domain of human FGF23, wild type), Q9GZV9 Y70A (protein) YPNASPLLGSSWGGLIHLYTATARNSYHLQIHKNGHVDGAPHQTIASALMIRSEDAGFVVITGVMSRRYLCMDFRGNIFGSHYFDPENCRFQHQTLENGYDVYHSPQYHFLVSLGRAKRAFLPGMNPPPYSQFLSRRNEIPLIHFNTPIPRRHTRSAEDDSERDPLNVLKPRARMTPAPA | 1.8
13 | His-SUMO-FGF23 (N-terminal domain of human FGF23, wild type), Q9GZV9 Y107A (protein) YPNASPLLGSSWGGLIHLYTATARNSYHLQIHKNGHVDGAPHQTIYSALMIRSEDAGFVVITGVMSRRYLCMDFRGNIFGSHAFDPENCRFQHQTLENGYDVYHSPQYHFLVSLGRAKRAFLPGMNPPPYSQFLSRRNEIPLIHFNTPIPRRHTRSAEDDSERDPLNVLKPRARMTPAPA | 1.4
14 | His-SUMO-FGF23 (N-terminal domain of human FGF23, wild type), Q9GZV9 Y43A (protein) YPNASPLLGSSWGGLIHLATATARNSYHLQIHKNGHVDGAPHQTIYSALMIRSEDAGFVVITGVMSRRYLCMDFRGNIFGSHYFDPENCRFQHQTLENGYDVYHSPQYHFLVSLGRAKRAFLPGMNPPPYSQFLSRRNEIPLIHFNTPIPRRHTRSAEDDSERDPLNVLKPRARMTPAPA | 1.7
15 | His-SUMO-FGF23 (N-terminal domain of human FGF23, wild type), Q9GZV9 F108A (protein) YPNASPLLGSSWGGLIHLYTATARNSYHLQIHKNGHVDGAPHQTIYSALMIRSEDAGFVVITGVMSRRYLCMDFRGNIFGSHYADPENCRFQHQTLENGYDVYHSPQYHFLVSLGRAKRAFLPGMNPPPYSQFLSRRNEIPLIHFNTPIPRRHTRSAEDDSERDPLNVLKPRARMTPAPA | 6.2
16 | His-SUMO-FGF23 (N-terminal domain of human FGF23, wild type), Q9GZV9 E121A (protein) YPNASPLLGSSWGGLIHLYTATARNSYHLQIHKNGHVDGAPHQTIYSALMIRSEDAGFVVITGVMSRRYLCMDFRGNIFGSHYFDPENCRFQHQTLANGYDVYHSPQYHFLVSLGRAKRAFLPGMNPPPYSQFLSRRNEIPLIHFNTPIPRRHTRSAEDDSERDPLNVLKPRARMTPAPA | 1
17 | His-SUMO-FGF23 (N-terminal domain of human FGF23, wild type), Q9GZV9 R76A (protein) YPNASPLLGSSWGGLIHLYTATARNSYHLQIHKNGHVDGAPHQTIYSALMIASEDAGFVVITGVMSRRYLCMDFRGNIFGSHYFDPENCRFQHQTLENGYDVYHSPQYHFLVSLGRAKRAFLPGMNPPPYSQFLSRRNEIPLIHFNTPIPRRHTRSAEDDSERDPLNVLKPRARMTPAPA | 8.2
18 | His-SUMO-FGF23 (N-terminal domain of human FGF23, wild type), Q9GZV9 R99A (protein) YPNASPLLGSSWGGLIHLYTATARNSYHLQIHKNGHVDGAPHQTIYSALMIRSEDAGFVVITGVMSRRYLCMDFAGNIFGSHYFDPENCRFQHQTLENGYDVYHSPQYHFLVSLGRAKRAFLPGMNPPPYSQFLSRRNEIPLIHFNTPIPRRHTRSAEDDSERDPLNVLKPRARMTPAPA | 1.4

molecular target: alanine substitution at H52, R76, F108 residues of FGF23 (three single mutants, as a group) (human); experiment: ELISA; indirect ELISA: FGF23 or its mutants coated at 2 µg/mL on Maxisorp plates (4 °C overnight), Burosumab or its variants three-fold serially diluted in PBS from 9 µg/mL, room temperature 2 h, anti-human IgG H&L-HRP, A450; fold change from Kd values against the wild type; conditions: not given

Row | Binder | fold decrease in binding against wild-type FGF23
19 | Burosumab (wild type) (antibody, V domains shown) VH: QVQLVQSGAEVKKPGASVKVSCKASGYTFTNHYMHWVRQAPGQGLEWMGIINPISGSTSNAQKFQGRVTMTRDTSTSTVYMELSSLRSEDTAVYYCARDIVDAFDFWGQGTMVTVSS VL: AIQLTQSPSSLSASVGDRVTITCRASQGISSALVWYQQKPGKAPKLLIYDASSLESGVPSRFSGSGSGTDFTLTISSLQPEDFATYYCQQFNDYFTFGPGTKVDIK | 7 to 10 fold
